Test results from publication PMC7461980, “High-Level Production of Recombinant Snowdrop Lectin in Sugarcane and Energy Cane” (Frontiers in Bioengineering and Biotechnology, 2020).
Several values for one entry are separate records, joined by “and”; a condition that tells them apart may be missing. Equal entries are not always repeated.

B1: recombinant GNA109 (G. nivalis lectin LECGNA2 with four additional amino acids, Thr106 His107 Thr108 Gly109, at the C-terminus of the mature protein) (natural protein, Galanthus nivalis)
chain: DNILYSGETLSTGEFLNYGSFVFIMQEDCNLVLYDVDKPIWATNTGGLSRSCFLSMQTDGNLVVYNPSNKPIWASNTGGQNGNYVCILQKDRNVVIYGTDRWATGTHTG
notes: numbers count on: the mature protein; four additional amino acids Thr106 His107 Thr108 Gly109 at the C-terminus of the mature protein; Theoretical mass printed: 12,051.42 Da; source: synthesized (GenScript); purified using immobilized mannose
B2: sugarcane recombinant GNA (Galanthus nivalis agglutinin, snowdrop lectin LECGNA2) (natural protein, UniProt P30617 20-128, looked up)
chain: DNILYSGETLSTGEFLNYGSFVFIMQEDCNLVLYDVDKPIWATNTGGLSRSCFLSMQTDGNLVVYNPSNKPIWASNTGGQNGNYVCILQKDRNVVIYGTDRWATG
notes: Galanthus nivalis L. (snowdrop) lectin LECGNA2, expressed from the full-length cDNA (570 bp); the purified product is a band corresponding to mature GNA (about 12.0 kDa); The exact C-terminal end of the processed protein in sugarcane is not determined; native GNA 12,054.41 Da theoretical; also called sugarcane GNA

What was measured:
[1] = molecular target: the molecule itself; experiment: MALDI-TOF MS; non-reducing conditions; sinapinic acid matrix; linear delayed positive ion mode; mass range 4,500-50,000 Da
P30617 = experiment: SEC; TSKgel G3000SW xL, HPLC; 50 mM sodium phosphate, 0.3 M NaCl, pH 7.0; non-reducing conditions; 1.0 mL/min; absorbance at 220 and 280 nm; mass standards 6.5-675 kDa
[2] = molecular target: the molecule itself; experiment: as above

Protein	stoichiometry N [1]	purity (relative peak abundance) of the tetramer (P30617)	stoichiometry N [2]
B1	2 and 3		
B2	2 and 3	The purities of the recombinant GNA monomer and tetramer were 65.5% and 24%, respectively	4
